# Entries after “also recorded” stand apart in the source; their conditions may differ.
# B1: LHD: Fusion of phage phiC2 lysin catalytic domain (LCD, 179aa), (GGGGS)3 linker and human alpha-defensin 5; SEQ ID NO:1 (protein)
# chain: MKICITVGHSILKSGACTSADGVVNEYQYNKSLAPVLADTFRKEGHKVDVIICPEKQFKTKNEEKSYKIPRVNSGGYDLLIELHLNASNGQGKGSEVLYYSNKGLEYATRICDKLGTVFKNRGAKLDKRLYILNSSKPTAVLIESFFCDNKEDYDKAKKLGHEGIAKLIVEGVLNKNINGGGGSGGGGSGGGGSATCYCRTGRCATRESLSGVCEISGRLYRLCCR
# Tests used:
# [1] = target: Clostridium difficile toxin B (TcdB) (Clostridioides difficile, UniProt P18177); experiment: Inhibition of TcdB cytotoxicity in CT26 cells (cell rounding, non-glucosylated Rac1 Western blot); assay type: cell-based; conditions: pre-treatment 750 ng/ml 1 hr, TcdB 15 ng/ml 5 hrs
# Sequence of Clostridium difficile toxin B (TcdB) (P18177 whole entry): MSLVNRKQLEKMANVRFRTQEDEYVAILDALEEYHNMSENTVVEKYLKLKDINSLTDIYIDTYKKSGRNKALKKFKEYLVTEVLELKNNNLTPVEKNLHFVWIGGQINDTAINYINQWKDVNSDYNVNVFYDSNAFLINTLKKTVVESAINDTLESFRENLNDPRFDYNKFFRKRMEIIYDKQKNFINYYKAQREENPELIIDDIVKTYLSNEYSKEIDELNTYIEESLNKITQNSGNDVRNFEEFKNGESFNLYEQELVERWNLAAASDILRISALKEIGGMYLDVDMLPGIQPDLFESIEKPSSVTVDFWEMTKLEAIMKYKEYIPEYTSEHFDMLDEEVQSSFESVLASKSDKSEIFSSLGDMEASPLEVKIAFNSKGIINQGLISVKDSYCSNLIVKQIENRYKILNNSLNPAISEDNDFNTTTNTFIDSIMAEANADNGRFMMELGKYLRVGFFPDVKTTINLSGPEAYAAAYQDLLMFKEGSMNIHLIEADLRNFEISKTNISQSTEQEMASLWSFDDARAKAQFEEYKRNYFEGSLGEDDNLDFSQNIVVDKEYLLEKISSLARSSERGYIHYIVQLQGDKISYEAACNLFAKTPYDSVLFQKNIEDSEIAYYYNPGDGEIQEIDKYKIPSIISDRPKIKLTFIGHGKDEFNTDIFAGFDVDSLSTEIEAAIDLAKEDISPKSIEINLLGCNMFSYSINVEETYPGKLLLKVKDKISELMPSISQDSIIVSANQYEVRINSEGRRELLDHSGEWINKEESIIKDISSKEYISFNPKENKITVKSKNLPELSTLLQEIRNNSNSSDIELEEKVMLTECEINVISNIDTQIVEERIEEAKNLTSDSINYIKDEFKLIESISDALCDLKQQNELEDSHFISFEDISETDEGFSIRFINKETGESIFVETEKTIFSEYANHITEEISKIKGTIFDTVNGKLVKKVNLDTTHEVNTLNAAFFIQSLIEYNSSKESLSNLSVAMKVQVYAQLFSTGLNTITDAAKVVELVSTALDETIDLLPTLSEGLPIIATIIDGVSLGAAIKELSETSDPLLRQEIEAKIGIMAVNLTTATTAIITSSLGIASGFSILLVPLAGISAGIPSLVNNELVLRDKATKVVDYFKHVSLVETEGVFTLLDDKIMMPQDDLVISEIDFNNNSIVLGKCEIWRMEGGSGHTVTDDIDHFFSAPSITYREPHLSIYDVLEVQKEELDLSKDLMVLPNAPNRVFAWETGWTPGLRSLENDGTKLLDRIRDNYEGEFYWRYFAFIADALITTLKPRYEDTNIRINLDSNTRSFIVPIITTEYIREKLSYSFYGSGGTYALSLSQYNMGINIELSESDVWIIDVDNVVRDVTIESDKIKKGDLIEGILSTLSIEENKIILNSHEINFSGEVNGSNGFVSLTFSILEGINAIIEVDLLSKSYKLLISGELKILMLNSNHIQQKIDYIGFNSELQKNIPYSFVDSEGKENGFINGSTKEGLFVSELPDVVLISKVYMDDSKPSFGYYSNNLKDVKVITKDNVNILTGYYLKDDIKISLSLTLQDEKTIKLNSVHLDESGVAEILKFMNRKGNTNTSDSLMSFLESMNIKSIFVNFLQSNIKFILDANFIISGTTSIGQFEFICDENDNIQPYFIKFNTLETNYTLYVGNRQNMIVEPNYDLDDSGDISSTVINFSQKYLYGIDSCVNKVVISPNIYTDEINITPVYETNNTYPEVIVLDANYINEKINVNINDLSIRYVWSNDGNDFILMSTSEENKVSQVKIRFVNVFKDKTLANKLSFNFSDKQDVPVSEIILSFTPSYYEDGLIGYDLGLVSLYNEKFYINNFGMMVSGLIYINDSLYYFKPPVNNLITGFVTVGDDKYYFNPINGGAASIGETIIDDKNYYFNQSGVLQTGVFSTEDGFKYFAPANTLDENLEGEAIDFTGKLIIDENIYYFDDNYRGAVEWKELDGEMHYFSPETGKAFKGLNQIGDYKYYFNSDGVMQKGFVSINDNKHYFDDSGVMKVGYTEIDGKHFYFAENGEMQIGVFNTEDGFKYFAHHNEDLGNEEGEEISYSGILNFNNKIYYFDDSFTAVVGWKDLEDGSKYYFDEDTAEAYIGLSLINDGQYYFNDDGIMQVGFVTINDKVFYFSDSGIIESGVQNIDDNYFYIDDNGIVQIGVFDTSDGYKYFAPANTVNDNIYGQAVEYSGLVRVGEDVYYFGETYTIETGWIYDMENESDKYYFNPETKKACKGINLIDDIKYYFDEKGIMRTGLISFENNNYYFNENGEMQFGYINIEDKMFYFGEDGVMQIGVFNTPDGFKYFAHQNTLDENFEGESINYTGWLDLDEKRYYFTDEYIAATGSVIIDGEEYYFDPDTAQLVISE
# Method: (FIG. 5A) LHD inhibits TcdB-induced cell rounding. CT26 cells in 12-well plates were exposed to HD or LHD at 750 ng/ml (50 times of TcdB concentration) or nothing for 1 hour, followed by exposure to TcdB at 15 ng/ml for 5 hours. (FIG. 5B) Western-blot analysis of non-glucosylated Rac1 in CT26 cells treated with TcdB in the presence or absence of LHD or HD. TcdB glucosylates Rac1 in cells, serving as a readout for toxin cytotoxicity. Quantitation of Rac1 levels in Western-blot was shown in low panel (*p<0.05). (FIG. 5C) CT26 cells were lysed, and the cytosolic fraction was exposed to TcdB (15 ng/ml) with or without HD at 750 ng/ml (50 times of TcdB concentration) or LHD at 1500 ng/ml (same molecular concentration as HD) or nothing for 1 h followed by Western Blot analysis using a monoclonal antibody that only recognizes non-glucosylated Rac1. β-actin was used as an equal loading control. Quantitation of Rac1 levels in Western-blot was shown in low panel (****p<0.0001).
# It was reported that the human defensin protein HD5 (HD) could inhibit TcdB (Giesemann, Guttenberg et al. 2008). Therefore, we evaluated the inhibitory effects of LHD and HD on TcdB. Briefly, CT26 cells in 12-well plates were exposed to LHD, synthesized HD or PBS at 750 ng/ml (50 times of TcdB concentration) for 1 hr, followed by exposure to TcdB at 15 ng/ml for 5 hrs. Total cell lysates were subjected to 12% SDS-PAGE separation, and transferred onto a Nylon membrane. Following blocking for 1 hr at room temperature with 5% skim milk, the membrane was incubated overnight at 4° C. with RAC1 antibody (1:1000, Cat: 610650, BD Biosciences) and β-actin antibody (1:10000, Cat: A5441, Sigma-Aldrich).
# C. difficile R20291 = experiment: Minimum inhibitory concentration (MIC) on strain R20291; assay type: cell-based, Clostridium difficile; conditions: strain R20291, BHIS, 37° C. for 18 h
# Method: The minimum inhibitory concentrations (MICs) of LHD and LCD were determined using the protocol of Wiegand, et al. (Wiegand, Hilpert et al. 2008) with some modifications, as described previously (Gilmer, Schmitz et al. 2017). In brief, strain R20291 was grown in BHIS and adjusted to ˜5×10^5 cells/ml in BHIS, and distributed into the wells of a 96-well round bottom polystyrene microtiter plate. In the wells of each row, either sterile-filtered lysin or control vehicle (metronidazole, vancomycin and fidaxomicin) was added with a final concertation varied from 200 μg/ml to 0.19 μg/ml (2-fold dilution) (Wiegand, Hilpert et al. 2008). The plates were incubated at 37° C. for 18 h. The MIC was “the lowest or minimum concentration of lysin or control vehicle that prevented the formation of a cell pellet (a measure of growth) on the bottom of the wells” (Gilmer, Schmitz et al. 2017). The MICs were also confirmed by measuring the OD600 values using a Bio-Rad plate reader (Bio-Rad, Hercules, CA).
molecule,measurement,setting,value
B1,cell rounding caused by TcdB,[1],decreased cell rounding; also recorded: comparable to human defensin peptide HD5
same,non-glucosylated Rac1 in cells (readout of cytotoxicity of TcdB),[1],significant increase
same,MIC,C. difficile R20291,0.78 µg/mL

# — patent US12630596B2, “Engineered lysin-human defensin protein” (priority 2018, dated 2026)
